These results are taken from article PMC6336354, “A transient helix in the disordered region of dynein light intermediate chain links the motor to structurally diverse adaptors for cargo transport” (PLoS Biology, 2019).

Assay [1] concerns the target T1, RILP(1–401)::Strep-tag II (human, UniProt Q96NA2 1-401).
T1 construct: also called RILP::Strep-tag II; source: Sf21 insect cells (baculovirus), purified (Strep-Tactin Sepharose); not shown: Strep-tag II (after linker GSGSGR), C-terminal, kept
T1 sequence (looked up): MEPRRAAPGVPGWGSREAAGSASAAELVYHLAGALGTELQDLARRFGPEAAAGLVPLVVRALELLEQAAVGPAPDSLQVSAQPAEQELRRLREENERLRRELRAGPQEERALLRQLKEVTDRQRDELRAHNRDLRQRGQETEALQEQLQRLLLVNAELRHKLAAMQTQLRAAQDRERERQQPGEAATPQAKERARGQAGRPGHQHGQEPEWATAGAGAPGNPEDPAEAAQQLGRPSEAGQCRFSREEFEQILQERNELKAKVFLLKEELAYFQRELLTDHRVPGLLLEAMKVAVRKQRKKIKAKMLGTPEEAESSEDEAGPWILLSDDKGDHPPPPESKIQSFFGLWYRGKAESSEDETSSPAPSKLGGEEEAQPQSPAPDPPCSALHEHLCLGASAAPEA
The experiment in a line: pull-down; GST::LIC::6xHis (50 pmol) with 50 or 250 pmol adaptor and glutathione agarose, 1 h at 4°C, 150 μL of 50 mM HEPES, 100 mM NaCl, 5 mM DTT, pH 7.5, 0.1% Tween 20; Coomassie staining and immunoblot against Strep-tag II. The conditions noted are these: both partners purified. Background: A western blot detects proteins with antibodies after separation by electrophoresis.

A further assay concerns the target T2, NIN(1–693)::Strep-tag II (human, UniProt Q8N4C6 1-693).
T2 construct: human ninein (NIN), N-terminal fragment, residues 1-693 of 2,090; also called ninein; source: E. coli Rosetta, purified (Ni-NTA, TEV cleavage, Strep-Tactin; dialysis or SEC); not shown: 6xHis::MBP, N-terminal, cleaved; Strep-tag II (after linker GSGSGR), C-terminal, kept
T2 sequence (looked up): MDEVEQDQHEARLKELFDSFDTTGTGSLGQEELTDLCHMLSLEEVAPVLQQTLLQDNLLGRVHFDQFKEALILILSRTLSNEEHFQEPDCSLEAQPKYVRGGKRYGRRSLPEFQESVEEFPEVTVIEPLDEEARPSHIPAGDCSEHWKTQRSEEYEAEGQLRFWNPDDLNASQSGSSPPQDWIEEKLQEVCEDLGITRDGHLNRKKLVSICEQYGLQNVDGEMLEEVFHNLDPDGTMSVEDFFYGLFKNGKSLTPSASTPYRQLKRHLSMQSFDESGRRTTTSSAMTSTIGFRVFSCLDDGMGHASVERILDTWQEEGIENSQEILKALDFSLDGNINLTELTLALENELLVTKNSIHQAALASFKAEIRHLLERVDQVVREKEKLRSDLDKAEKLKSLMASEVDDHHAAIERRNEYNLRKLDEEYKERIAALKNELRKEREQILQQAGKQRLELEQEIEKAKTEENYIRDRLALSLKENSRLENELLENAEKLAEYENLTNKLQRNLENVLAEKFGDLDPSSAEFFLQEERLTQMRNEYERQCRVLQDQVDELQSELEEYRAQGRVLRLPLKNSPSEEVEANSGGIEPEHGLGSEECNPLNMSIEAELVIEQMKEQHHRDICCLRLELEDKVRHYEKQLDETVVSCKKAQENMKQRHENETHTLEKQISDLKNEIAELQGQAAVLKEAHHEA
The assay is described as above. The conditions noted are these: both partners purified.

B1: GST::LIC2(375–492)::6xHis (domain or fragment, human)
chain: WATPTRASESPARGPSGSPRTQGRGGPASVPSSSPGTSVKKPDPNIKNNAASEGVLASFFNSLLSKKTGSPGSPGAGGVQSTAKKSGQKTVLSNVQEELDRMTRKPDSMVTNSSTENEA
notes: single N-terminal tryptophan added in the construct; also called LIC2-C; source: E. coli BL21, purified (glutathione agarose, Ni-NTA; dialysis or SEC); not shown: GST, N-terminal, kept; 6xHis (after linker GSGSG), C-terminal, kept
For the molecule B1, the binding result (in assay [1]; with NIN(1–693)::Strep-tag II) was “binds” in each case.

B2: GST::LIC1(402–471)::6xHis (domain or fragment, human)
chain: WPGGSPRTPNRSVSSNVASVSPIPAGSKKIDPNMKAGATSEGVLANFFNSLLSKKTGSPGGPGVSGGSPAG
notes: single N-terminal tryptophan added in the construct; human dynein light intermediate chain 1 (DYNC1LI1), residues 402-471; source: E. coli BL21, purified (glutathione agarose, Ni-NTA; dialysis or SEC); not shown: GST, N-terminal, kept; 6xHis (after linker GSGSG), C-terminal, kept
As for B2, the binding result (in assay [1]; in the assay with NIN(1–693)::Strep-tag II) was “binds” throughout.

B3: GST::LIC2(375–450)::6xHis (domain or fragment, human)
chain: WATPTRASESPARGPSGSPRTQGRGGPASVPSSSPGTSVKKPDPNIKNNAASEGVLASFFNSLLSKKTGSPGSPGAG
notes: single N-terminal tryptophan added in the construct; source: E. coli BL21, purified (glutathione agarose, Ni-NTA; dialysis or SEC); not shown: GST, N-terminal, kept; 6xHis (after linker GSGSG), C-terminal, kept
On to B3, for which the binding result (in assay [1]; in the assay with NIN(1–693)::Strep-tag II) was “binds” in each case.

B4: GST::LIC1(414–471)::6xHis (domain or fragment, human)
chain: WSSNVASVSPIPAGSKKIDPNMKAGATSEGVLANFFNSLLSKKTGSPGGPGVSGGSPAG
notes: single N-terminal tryptophan added in the construct; human dynein light intermediate chain 1 (DYNC1LI1), residues 414-471; source: E. coli BL21, purified (glutathione agarose, Ni-NTA; dialysis or SEC); not shown: GST, N-terminal, kept; 6xHis (after linker GSGSG), C-terminal, kept
B4: the binding result (in assay [1]; with NIN(1–693)::Strep-tag II) was “binds” throughout.
